What was measured:
[1] = biological target: Oct4 (Pou5f1) (Mus musculus) (UniProt P20263); details: ChIP-qPCR, undifferentiated mouse ESCs; 10-fold maximum after 3 days RA, none at 6 days
Sox2 (Mus musculus) = Sox2 (Mus musculus) (UniProt P48432); details: ChIP-qPCR, undifferentiated mouse ESCs; 10-fold maximum after 3 days RA, none at 6 days
OCT4 (Homo sapiens) = details: ChIP-qPCR, human HUES-6 ESCs
SOX2 (Homo sapiens) = details: ChIP-qPCR, human HUES-6 ESCs

Sequence of Oct4 (Pou5f1) (Mus musculus) (P20263 whole entry): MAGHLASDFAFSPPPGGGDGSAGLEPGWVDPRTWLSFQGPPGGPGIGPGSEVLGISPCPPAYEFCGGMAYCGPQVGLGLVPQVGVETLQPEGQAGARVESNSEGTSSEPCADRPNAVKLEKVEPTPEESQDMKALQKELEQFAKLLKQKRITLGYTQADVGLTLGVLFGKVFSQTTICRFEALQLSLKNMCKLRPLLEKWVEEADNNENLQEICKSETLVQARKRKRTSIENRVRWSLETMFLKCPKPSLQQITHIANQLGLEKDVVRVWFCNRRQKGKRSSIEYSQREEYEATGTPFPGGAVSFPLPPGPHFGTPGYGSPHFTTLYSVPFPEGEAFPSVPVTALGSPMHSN
Sequence of Sox2 (Mus musculus) (P48432 whole entry): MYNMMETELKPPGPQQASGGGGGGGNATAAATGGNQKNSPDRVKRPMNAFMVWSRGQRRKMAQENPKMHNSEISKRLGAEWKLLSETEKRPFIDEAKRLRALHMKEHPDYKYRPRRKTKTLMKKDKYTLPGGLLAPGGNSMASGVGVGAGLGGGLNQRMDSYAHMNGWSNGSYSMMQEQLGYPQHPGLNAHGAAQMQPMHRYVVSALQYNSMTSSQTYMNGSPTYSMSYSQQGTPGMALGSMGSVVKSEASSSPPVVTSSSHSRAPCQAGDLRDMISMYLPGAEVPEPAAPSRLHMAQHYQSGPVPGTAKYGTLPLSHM

| Substance | binding signal (fold enrichment) [1] | binding signal (fold enrichment) (Sox2 (Mus musculus)) | binding signal (fold enrichment) (OCT4 (Homo sapiens)) | binding signal (fold enrichment) (SOX2 (Homo sapiens)) |
| --- | --- | --- | --- | --- |
| mouse Nanog promoter oct-sox region (ChIP amplicon 2) | < 43 | < 37 |  |  |
| human NANOG promoter sox-oct region |  |  | 6 | 6 |

From patent publication US20090018059
